Measurements taken from patent US20210389324.

Key:
[1] = test system: CFP-TRIM14-YFP 25-residue substrate

Recombinant VEEV nsP2-thioredoxin Protease containing residues 457-792
Km (CFP-V12-YFP): 12 µM | Vmax (CFP-V12-YFP): 0.059 U/mg | cleavage of CFP-YFP substrate (CFP-V12-YFP): VEEV nsP2 cysteine protease | Km [1]: 21 µM | Vmax [1]: 0.056 U/mg | cleavage of CFP-YFP substrate [1]: VEEV nsP2 cysteine protease
